Assay results: publication PMC9592583

Target: proMbxA (6H-MbxA, non-acylated precursor of the RTX toxin MbxA from Moraxella bovis) (Moraxella bovis)
Experiment: SEC-MALS; proMbxA species of SEC peak 1, 1.3-2.5 mg/ml, 200 ul on Superose 6 Increase 10/300 GL; 50 mM TRIS pH 7.8, 100 mM NaCl, 10 mM CaCl2

proMbxA (6H-MbxA, non-acylated precursor of the RTX toxin MbxA from Moraxella bovis) (natural protein)
stoichiometry N: 2
